# Article PMC5025653
# Target: C-terminal region of IbOr (IbOr-C), recombinant (sweetpotato (Ipomoea batatas))
# Experiment: native gel or EMSA; 10% native PAGE gel, silver-stained; recombinant IbOr and truncated fragments
substance,measurement,value
"C-terminal region of IbOr (IbOr-C), recombinant (domain or fragment)",stoichiometry N,3
